In PMC4434323:

Columns and labels:
[1] = tested on: T1, slr-2 (Y59A8B.13) (Caenorhabditis elegans)
T1 sequence: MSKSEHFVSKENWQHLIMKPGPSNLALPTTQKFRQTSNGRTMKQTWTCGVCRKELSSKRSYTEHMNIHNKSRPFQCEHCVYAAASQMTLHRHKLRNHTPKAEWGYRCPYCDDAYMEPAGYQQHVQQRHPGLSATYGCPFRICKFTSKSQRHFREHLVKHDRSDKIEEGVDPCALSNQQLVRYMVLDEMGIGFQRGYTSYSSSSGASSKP

[2] = target: T2, nhr-5 (Y73F8A.21) (Caenorhabditis elegans) (UniProt Q9NA51)
T2 sequence: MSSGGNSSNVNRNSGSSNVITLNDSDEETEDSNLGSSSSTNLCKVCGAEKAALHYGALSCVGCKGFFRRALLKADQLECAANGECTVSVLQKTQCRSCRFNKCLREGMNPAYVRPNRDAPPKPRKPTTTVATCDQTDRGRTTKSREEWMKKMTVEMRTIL

[3] = target: T3, daf-12 (F11A1.3) (Caenorhabditis elegans) (UniProt G5EFF5)
T3 sequence: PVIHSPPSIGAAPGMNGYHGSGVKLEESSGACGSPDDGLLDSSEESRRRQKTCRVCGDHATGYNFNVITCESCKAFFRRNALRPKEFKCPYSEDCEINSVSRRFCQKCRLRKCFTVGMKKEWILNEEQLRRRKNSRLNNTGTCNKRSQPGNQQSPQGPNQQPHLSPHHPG

[4] = target: T4, nhr-70 (Y51A2D.17) (Caenorhabditis elegans) (UniProt G5EEL3)
T4 sequence: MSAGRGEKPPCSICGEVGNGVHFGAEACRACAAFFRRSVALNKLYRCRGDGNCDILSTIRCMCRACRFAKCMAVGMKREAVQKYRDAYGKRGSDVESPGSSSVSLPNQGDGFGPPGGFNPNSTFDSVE

[5] = target: T5, nhr-66 (T09A12.4) (Caenorhabditis elegans) (UniProt H2KYJ8)
T5 sequence: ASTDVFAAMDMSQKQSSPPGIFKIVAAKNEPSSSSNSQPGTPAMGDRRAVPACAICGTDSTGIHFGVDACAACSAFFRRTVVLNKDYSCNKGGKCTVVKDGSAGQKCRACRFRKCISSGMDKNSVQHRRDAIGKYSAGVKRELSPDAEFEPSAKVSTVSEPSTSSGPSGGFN

[6] = target: sptf-3 (Y40B1A.4) (Caenorhabditis elegans) (UniProt Q9XW26)
Sequence of sptf-3 (Y40B1A.4) (Caenorhabditis elegans) (Q9XW26 266-412): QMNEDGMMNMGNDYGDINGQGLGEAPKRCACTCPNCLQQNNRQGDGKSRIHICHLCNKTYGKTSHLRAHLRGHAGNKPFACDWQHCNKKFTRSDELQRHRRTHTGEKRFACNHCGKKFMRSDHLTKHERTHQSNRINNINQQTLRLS

[7] = target: klf-3 (F54H5.4) (Caenorhabditis elegans) (UniProt Q65ZG6)
Sequence of klf-3 (F54H5.4) (Caenorhabditis elegans) (Q65ZG6 180-315): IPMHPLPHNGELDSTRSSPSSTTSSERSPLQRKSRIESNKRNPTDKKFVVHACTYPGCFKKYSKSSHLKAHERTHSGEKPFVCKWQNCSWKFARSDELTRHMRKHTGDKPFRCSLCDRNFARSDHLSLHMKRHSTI

[8] = target: T6, ZK337.2 (ZK337.2) (Caenorhabditis elegans) (UniProt O46016)
T6 sequence: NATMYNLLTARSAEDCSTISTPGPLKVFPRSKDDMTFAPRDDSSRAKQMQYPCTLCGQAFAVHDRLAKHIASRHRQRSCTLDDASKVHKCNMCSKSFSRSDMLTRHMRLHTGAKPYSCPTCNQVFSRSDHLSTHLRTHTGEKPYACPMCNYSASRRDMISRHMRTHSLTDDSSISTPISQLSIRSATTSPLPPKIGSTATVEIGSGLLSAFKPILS

[9] = target: egrh-1 (C27C12.2) (Caenorhabditis elegans) (UniProt Q18250)
Sequence of egrh-1 (C27C12.2) (Caenorhabditis elegans) (Q18250 324-461): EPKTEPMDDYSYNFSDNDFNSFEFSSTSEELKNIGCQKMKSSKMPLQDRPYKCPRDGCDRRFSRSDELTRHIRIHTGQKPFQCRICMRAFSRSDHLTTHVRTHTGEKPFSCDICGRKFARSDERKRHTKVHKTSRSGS

[10] = target: ZC328.2 (ZC328.2) (Caenorhabditis elegans) (UniProt O02050)
Sequence of ZC328.2 (ZC328.2) (Caenorhabditis elegans) (O02050 entry or part of it): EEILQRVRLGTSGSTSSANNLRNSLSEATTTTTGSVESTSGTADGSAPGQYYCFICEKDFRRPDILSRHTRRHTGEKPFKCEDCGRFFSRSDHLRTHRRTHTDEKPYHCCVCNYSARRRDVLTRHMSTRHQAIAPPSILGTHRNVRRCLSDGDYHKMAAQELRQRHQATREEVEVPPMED

[11] = target: T7, odr-7 (T18D3.2) (Caenorhabditis elegans) (UniProt P41933)
T7 sequence: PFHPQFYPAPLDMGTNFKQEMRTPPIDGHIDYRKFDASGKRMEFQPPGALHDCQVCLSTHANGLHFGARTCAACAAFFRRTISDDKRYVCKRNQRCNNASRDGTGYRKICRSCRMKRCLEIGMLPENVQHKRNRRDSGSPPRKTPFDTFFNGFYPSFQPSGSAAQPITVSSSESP

[12] = target: T8, mnm-2 (C10A4.8) (Caenorhabditis elegans) (UniProt Q17895)
T8 sequence: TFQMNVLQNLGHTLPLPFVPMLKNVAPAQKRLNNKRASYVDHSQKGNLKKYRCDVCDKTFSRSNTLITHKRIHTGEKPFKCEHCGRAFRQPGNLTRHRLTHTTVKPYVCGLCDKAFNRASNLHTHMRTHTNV

[13] = target: T9, fkh-9 (K03C7.2) (Caenorhabditis elegans) (UniProt Q21187)
T9 sequence: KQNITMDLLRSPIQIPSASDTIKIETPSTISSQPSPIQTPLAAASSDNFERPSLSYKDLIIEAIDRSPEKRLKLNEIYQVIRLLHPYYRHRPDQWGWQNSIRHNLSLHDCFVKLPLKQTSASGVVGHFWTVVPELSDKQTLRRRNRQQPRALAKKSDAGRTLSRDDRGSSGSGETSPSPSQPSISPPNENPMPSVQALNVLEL

[14] = target: T10, let-381 (F26B1.7) (Caenorhabditis elegans) (UniProt P91278)
T10 sequence: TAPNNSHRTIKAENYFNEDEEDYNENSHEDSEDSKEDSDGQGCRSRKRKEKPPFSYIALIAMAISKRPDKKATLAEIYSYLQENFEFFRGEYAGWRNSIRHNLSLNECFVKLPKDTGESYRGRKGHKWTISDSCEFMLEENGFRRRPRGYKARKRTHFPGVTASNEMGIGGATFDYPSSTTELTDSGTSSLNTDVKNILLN

[15] = target: T11, ceh-26 (K12H4.1) (Caenorhabditis elegans) (UniProt P34522)
T11 sequence: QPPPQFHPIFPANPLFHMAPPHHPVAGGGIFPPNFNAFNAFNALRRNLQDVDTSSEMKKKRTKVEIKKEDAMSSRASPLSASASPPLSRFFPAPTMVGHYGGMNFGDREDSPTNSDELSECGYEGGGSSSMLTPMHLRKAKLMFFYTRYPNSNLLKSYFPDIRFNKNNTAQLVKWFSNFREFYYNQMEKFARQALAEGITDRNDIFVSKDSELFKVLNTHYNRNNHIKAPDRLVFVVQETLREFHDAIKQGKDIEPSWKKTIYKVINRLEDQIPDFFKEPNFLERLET

AAACTGCA (double strand) [8-mer AAACTGCA]
binding signal (PBM E-score (-0.5 to 0.5)) [1]: 0.475

AAAGAACG (double strand) [8-mer AAAGAACG]
binding signal (PBM E-score (-0.5 to 0.5)) [2]: 0.458

AAAGTACA (double strand) [8-mer AAAGTACA]
binding signal (PBM E-score (-0.5 to 0.5)) [2]: 0.482
binding signal (PBM E-score (-0.5 to 0.5)) [3]: 0.497

AAAGTACG (double strand) [8-mer AAAGTACG]
binding signal (PBM E-score (-0.5 to 0.5)) [2]: 0.462

AAAGTTCA (double strand) [8-mer AAAGTTCA]
binding signal (PBM E-score (-0.5 to 0.5)) [2]: 0.46

AACTACAA (double strand) [8-mer AACTACAA]
binding signal (PBM E-score (-0.5 to 0.5)) [4]: 0.487
binding signal (PBM E-score (-0.5 to 0.5)) [5]: 0.489
binding signal (PBM E-score (-0.5 to 0.5)) [1]: 0.492

AACTGCAA (double strand) [8-mer AACTGCAA]
binding signal (PBM E-score (-0.5 to 0.5)) [1]: 0.495

AAGTACAC (double strand) [8-mer AAGTACAC]
binding signal (PBM E-score (-0.5 to 0.5)) [2]: 0.457
binding signal (PBM E-score (-0.5 to 0.5)) [3]: 0.492

AAGTGCAC (double strand) [8-mer AAGTGCAC]
binding signal (PBM E-score (-0.5 to 0.5)) [2]: 0.453
binding signal (PBM E-score (-0.5 to 0.5)) [3]: 0.498

ACCGCCCC (double strand) [8-mer ACCGCCCC]
binding signal (PBM E-score (-0.5 to 0.5)) [6]: 0.476

ACGCCCAC (double strand) [8-mer ACGCCCAC]
binding signal (PBM E-score (-0.5 to 0.5)) [7]: 0.48
binding signal (PBM E-score (-0.5 to 0.5)) [8]: 0.492
binding signal (PBM E-score (-0.5 to 0.5)) [6]: 0.454
binding signal (PBM E-score (-0.5 to 0.5)) [9]: 0.494

ACGCCCCC (double strand) [8-mer ACGCCCCC]
binding signal (PBM E-score (-0.5 to 0.5)) [8]: 0.495
binding signal (PBM E-score (-0.5 to 0.5)) [6]: 0.49
binding signal (PBM E-score (-0.5 to 0.5)) [10]: 0.486
binding signal (PBM E-score (-0.5 to 0.5)) [9]: 0.495

ACGCCCCT (double strand) [8-mer ACGCCCCT]
binding signal (PBM E-score (-0.5 to 0.5)) [6]: 0.452

ACTACAAA (double strand) [8-mer ACTACAAA]
binding signal (PBM E-score (-0.5 to 0.5)) [4]: 0.493
binding signal (PBM E-score (-0.5 to 0.5)) [5]: 0.492
binding signal (PBM E-score (-0.5 to 0.5)) [1]: 0.452
binding signal (PBM E-score (-0.5 to 0.5)) [11]: 0.491

ACTGCAAA (double strand) [8-mer ACTGCAAA]
binding signal (PBM E-score (-0.5 to 0.5)) [1]: 0.487

AGACTGCA (double strand) [8-mer AGACTGCA]
binding signal (PBM E-score (-0.5 to 0.5)) [1]: 0.469

AGAGTACA (double strand) [8-mer AGAGTACA]
binding signal (PBM E-score (-0.5 to 0.5)) [2]: 0.48

AGCGCATC (double strand) [8-mer AGCGCATC]
binding signal (PBM E-score (-0.5 to 0.5)) [12]: 0.459

AGGGGCGG (double strand) [8-mer AGGGGCGG]
binding signal (PBM E-score (-0.5 to 0.5)) [6]: 0.494

AGTAAACA (double strand) [8-mer AGTAAACA]
binding signal (PBM E-score (-0.5 to 0.5)) [13]: 0.485
binding signal (PBM E-score (-0.5 to 0.5)) [14]: 0.457

AGTACACT (double strand) [8-mer AGTACACT]
binding signal (PBM E-score (-0.5 to 0.5)) [2]: 0.454

AGTGCACT (double strand) [8-mer AGTGCACT]
binding signal (PBM E-score (-0.5 to 0.5)) [2]: 0.456
binding signal (PBM E-score (-0.5 to 0.5)) [3]: 0.497

ATAAACAA (double strand) [8-mer ATAAACAA]
binding signal (PBM E-score (-0.5 to 0.5)) [13]: 0.485
binding signal (PBM E-score (-0.5 to 0.5)) [14]: 0.489

ATAAACAT (double strand) [8-mer ATAAACAT]
binding signal (PBM E-score (-0.5 to 0.5)) [14]: 0.473

ATAGTACA (double strand) [8-mer ATAGTACA]
binding signal (PBM E-score (-0.5 to 0.5)) [2]: 0.452

ATGGGCGG (double strand) [8-mer ATGGGCGG]
binding signal (PBM E-score (-0.5 to 0.5)) [6]: 0.456

ATGTTTAC (double strand) [8-mer ATGTTTAC]
binding signal (PBM E-score (-0.5 to 0.5)) [14]: 0.455

ATTGTTTA (double strand) [8-mer ATTGTTTA]
binding signal (PBM E-score (-0.5 to 0.5)) [14]: 0.467

CACGCCCC (double strand) [8-mer CACGCCCC]
binding signal (PBM E-score (-0.5 to 0.5)) [6]: 0.473

CCGCCCAC (double strand) [8-mer CCGCCCAC]
binding signal (PBM E-score (-0.5 to 0.5)) [8]: 0.494
binding signal (PBM E-score (-0.5 to 0.5)) [6]: 0.489
binding signal (PBM E-score (-0.5 to 0.5)) [10]: 0.489
binding signal (PBM E-score (-0.5 to 0.5)) [9]: 0.494

CGAAGAAA (double strand) [8-mer CGAAGAAA]
binding signal (PBM E-score (-0.5 to 0.5)) [15]: 0.453

CGTCTTGA (double strand) [8-mer CGTCTTGA]
binding signal (PBM E-score (-0.5 to 0.5)) [15]: 0.454

CTCCGCCC (double strand) [8-mer CTCCGCCC]
binding signal (PBM E-score (-0.5 to 0.5)) [6]: 0.451

GAACTACA (double strand) [8-mer GAACTACA]
binding signal (PBM E-score (-0.5 to 0.5)) [1]: 0.459

GAACTGCA (double strand) [8-mer GAACTGCA]
binding signal (PBM E-score (-0.5 to 0.5)) [1]: 0.494

GACTACAA (double strand) [8-mer GACTACAA]
binding signal (PBM E-score (-0.5 to 0.5)) [4]: 0.495
binding signal (PBM E-score (-0.5 to 0.5)) [5]: 0.488
binding signal (PBM E-score (-0.5 to 0.5)) [1]: 0.468
binding signal (PBM E-score (-0.5 to 0.5)) [11]: 0.476

GACTGCAA (double strand) [8-mer GACTGCAA]
binding signal (PBM E-score (-0.5 to 0.5)) [1]: 0.491

GAGTACAC (double strand) [8-mer GAGTACAC]
binding signal (PBM E-score (-0.5 to 0.5)) [2]: 0.461

GATGCGCA (double strand) [8-mer GATGCGCA]
binding signal (PBM E-score (-0.5 to 0.5)) [12]: 0.484

GATGCGCC (double strand) [8-mer GATGCGCC]
binding signal (PBM E-score (-0.5 to 0.5)) [12]: 0.464

GATGTGCA (double strand) [8-mer GATGTGCA]
binding signal (PBM E-score (-0.5 to 0.5)) [12]: 0.457

GCACATCC (double strand) [8-mer GCACATCC]
binding signal (PBM E-score (-0.5 to 0.5)) [12]: 0.46

GCCGTTCC (double strand) [8-mer GCCGTTCC]
binding signal (PBM E-score (-0.5 to 0.5)) [12]: 0.469

GGACTGCA (double strand) [8-mer GGACTGCA]
binding signal (PBM E-score (-0.5 to 0.5)) [1]: 0.476

GGGGCGGA (double strand) [8-mer GGGGCGGA]
binding signal (PBM E-score (-0.5 to 0.5)) [6]: 0.475

GGGGCGTA (double strand) [8-mer GGGGCGTA]
binding signal (PBM E-score (-0.5 to 0.5)) [6]: 0.462

GTAAACAC (double strand) [8-mer GTAAACAC]
binding signal (PBM E-score (-0.5 to 0.5)) [14]: 0.452

GTTTATAA (double strand) [8-mer GTTTATAA]
binding signal (PBM E-score (-0.5 to 0.5)) [14]: 0.459

TATAAACA (double strand) [8-mer TATAAACA]
binding signal (PBM E-score (-0.5 to 0.5)) [14]: 0.483

TCAAGAAA (double strand) [8-mer TCAAGAAA]
binding signal (PBM E-score (-0.5 to 0.5)) [15]: 0.462

TCTTAAGA (double strand) [8-mer TCTTAAGA]
binding signal (PBM E-score (-0.5 to 0.5)) [15]: 0.482

TGAAGAAA (double strand) [8-mer TGAAGAAA]
binding signal (PBM E-score (-0.5 to 0.5)) [15]: 0.453
